The target of assay [1] is T1, canine FcRn complex (FcRn-α subunit and β-microglobulin) (canine, UniProt A0A8I3PFR8 25-347, biotin on the BAP tag by BirA (Example 5 only)). Briefly: SPR (Biacore), biotinylated FcRn on SA chip, IgG flowed, pH 6, 15 C. On the technique in general: In SPR one partner is held on a chip, and binding of the other changes the refractive index at the surface.
Assay [2] concerns the target T1, canine FcRn complex (FcRn-α subunit and …). Briefly: SPR (Biacore), biotinylated FcRn on SA chip, IgG flowed, pH 7.4, 15 C.
Assay [3] has the same target. Briefly: SPR (Biacore), biotinylated FcRn on SA chip, IgG flowed, pH 6, 15 C. This is another data set of the same source.
Assay [4] shares this target. The assay can be described thus: SPR (Biacore), biotinylated FcRn on SA chip, IgG flowed, pH 7.4, 15 C. The source holds these as a separate data set.

Here are results for 8 molecules from patent publication US20260193342A1 (ZOETIS SERVICES, published 2026).

T1 sequence (A0A8I3PFR8 entry or part of it, one chain of several): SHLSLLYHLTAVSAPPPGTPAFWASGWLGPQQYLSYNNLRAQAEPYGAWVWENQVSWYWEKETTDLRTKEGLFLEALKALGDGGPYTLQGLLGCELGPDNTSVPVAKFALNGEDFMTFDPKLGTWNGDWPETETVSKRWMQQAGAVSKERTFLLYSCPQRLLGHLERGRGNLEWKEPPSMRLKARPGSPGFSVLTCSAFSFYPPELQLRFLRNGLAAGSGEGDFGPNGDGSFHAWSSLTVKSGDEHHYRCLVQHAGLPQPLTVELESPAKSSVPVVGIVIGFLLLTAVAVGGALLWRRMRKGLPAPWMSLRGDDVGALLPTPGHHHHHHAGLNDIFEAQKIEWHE

B1: mAb1, caninized anti-IL31 antibody 34D03, canine IgGB, N434L (antibody)
heavy: EVQLVESGGDLVKPGGSLRLSCVASGFTFSNYGMSWVRQAPGKGLQWVATISYGGSYTYYPDNIKGRFTISRDNAKNTLYLQMNSLRAEDTAMYYCVRGYGYDTMDYWGQGTLVTVSSASTTAPSVFPLAPSCGSTSGSTVALACLVSGYFPEPVTVSWNSGSLTSGVHTFPSVLQSSGLYSLSSMVTVPSSRWPSETFTCNVAHPASKTKVDKPVPKRENGRVPRPPDCPKCPAPEMLGGPSVFIFPPKPKDTLLIARTPEVTCVVVDLDPEDPEVQISWFVDGKQMQTAKTQPREEQFNGTYRVVSVLPIGHQDWLKGKQFTCKVNNKALPSPIERTISKARGQAHQPSVYVLPPSREELSKNTVSLTCLIKDFFPPDIDVEWQSNGQQEPESKYRTTPPQLDEDGSYFLYSKLSVDKSRWQRGDTFICAVMHEALHLHYTQESLSHSPGK
light: EIVMTQSPASLSLSQEEKVTITCKASQSVSFAGTGLMHWYQQKPGQAPKLLIYRASNLEAGVPSRFSGSGSGTDFSFTISSLEPEDVAVYYCQQSREYPWTFGQGTKLEIKRNDAQPAVYLFQPSPDQLHTGSASVVCLLNSFYPKDINVKWKVDGVIQDTGIQESVTEQDKDSTYSLSSTLTMSSTEYLSHELYSCEITHKSLPSTLIKSFQRSEC
notes: VH/VL: the caninized 34D03 entries of the listing; also called ID No. 14; copies: 2 + 2
For the molecule B1, the Kd (as a rule, the constant that tells how readily two partners part at equilibrium) in assay [1] turned out to be 14.3 nM; in assay [2], 997 nM.

B2: mAb1, caninized anti-IL31 antibody 34D03, canine IgGB, N434R (antibody)
heavy: EVQLVESGGDLVKPGGSLRLSCVASGFTFSNYGMSWVRQAPGKGLQWVATISYGGSYTYYPDNIKGRFTISRDNAKNTLYLQMNSLRAEDTAMYYCVRGYGYDTMDYWGQGTLVTVSSASTTAPSVFPLAPSCGSTSGSTVALACLVSGYFPEPVTVSWNSGSLTSGVHTFPSVLQSSGLYSLSSMVTVPSSRWPSETFTCNVAHPASKTKVDKPVPKRENGRVPRPPDCPKCPAPEMLGGPSVFIFPPKPKDTLLIARTPEVTCVVVDLDPEDPEVQISWFVDGKQMQTAKTQPREEQFNGTYRVVSVLPIGHQDWLKGKQFTCKVNNKALPSPIERTISKARGQAHQPSVYVLPPSREELSKNTVSLTCLIKDFFPPDIDVEWQSNGQQEPESKYRTTPPQLDEDGSYFLYSKLSVDKSRWQRGDTFICAVMHEALHRHYTQESLSHSPGK
light: EIVMTQSPASLSLSQEEKVTITCKASQSVSFAGTGLMHWYQQKPGQAPKLLIYRASNLEAGVPSRFSGSGSGTDFSFTISSLEPEDVAVYYCQQSREYPWTFGQGTKLEIKRNDAQPAVYLFQPSPDQLHTGSASVVCLLNSFYPKDINVKWKVDGVIQDTGIQESVTEQDKDSTYSLSSTLTMSSTEYLSHELYSCEITHKSLPSTLIKSFQRSEC
notes: VH/VL: the caninized 34D03 entries of the listing; also called ID No. 17; copies: 2 + 2
Take B2: the results for the Kd in assay [3] and in assay [4] were 0.906 nM and 3.11 nM, respectively.

B3: mAb1, caninized anti-IL31 antibody 34D03, canine IgGB, N434M (antibody)
heavy: EVQLVESGGDLVKPGGSLRLSCVASGFTFSNYGMSWVRQAPGKGLQWVATISYGGSYTYYPDNIKGRFTISRDNAKNTLYLQMNSLRAEDTAMYYCVRGYGYDTMDYWGQGTLVTVSSASTTAPSVFPLAPSCGSTSGSTVALACLVSGYFPEPVTVSWNSGSLTSGVHTFPSVLQSSGLYSLSSMVTVPSSRWPSETFTCNVAHPASKTKVDKPVPKRENGRVPRPPDCPKCPAPEMLGGPSVFIFPPKPKDTLLIARTPEVTCVVVDLDPEDPEVQISWFVDGKQMQTAKTQPREEQFNGTYRVVSVLPIGHQDWLKGKQFTCKVNNKALPSPIERTISKARGQAHQPSVYVLPPSREELSKNTVSLTCLIKDFFPPDIDVEWQSNGQQEPESKYRTTPPQLDEDGSYFLYSKLSVDKSRWQRGDTFICAVMHEALHMHYTQESLSHSPGK
light: EIVMTQSPASLSLSQEEKVTITCKASQSVSFAGTGLMHWYQQKPGQAPKLLIYRASNLEAGVPSRFSGSGSGTDFSFTISSLEPEDVAVYYCQQSREYPWTFGQGTKLEIKRNDAQPAVYLFQPSPDQLHTGSASVVCLLNSFYPKDINVKWKVDGVIQDTGIQESVTEQDKDSTYSLSSTLTMSSTEYLSHELYSCEITHKSLPSTLIKSFQRSEC
notes: VH/VL: the caninized 34D03 entries of the listing; also called ID No. 15; copies: 2 + 2
Consider B3, for which the Kd in assay [3] came to 14.2 nM; in assay [4], 146000 nM.

B4: mAb1, caninized anti-IL31 antibody 34D03, canine IgGB, N434T (antibody)
heavy: EVQLVESGGDLVKPGGSLRLSCVASGFTFSNYGMSWVRQAPGKGLQWVATISYGGSYTYYPDNIKGRFTISRDNAKNTLYLQMNSLRAEDTAMYYCVRGYGYDTMDYWGQGTLVTVSSASTTAPSVFPLAPSCGSTSGSTVALACLVSGYFPEPVTVSWNSGSLTSGVHTFPSVLQSSGLYSLSSMVTVPSSRWPSETFTCNVAHPASKTKVDKPVPKRENGRVPRPPDCPKCPAPEMLGGPSVFIFPPKPKDTLLIARTPEVTCVVVDLDPEDPEVQISWFVDGKQMQTAKTQPREEQFNGTYRVVSVLPIGHQDWLKGKQFTCKVNNKALPSPIERTISKARGQAHQPSVYVLPPSREELSKNTVSLTCLIKDFFPPDIDVEWQSNGQQEPESKYRTTPPQLDEDGSYFLYSKLSVDKSRWQRGDTFICAVMHEALHTHYTQESLSHSPGK
light: EIVMTQSPASLSLSQEEKVTITCKASQSVSFAGTGLMHWYQQKPGQAPKLLIYRASNLEAGVPSRFSGSGSGTDFSFTISSLEPEDVAVYYCQQSREYPWTFGQGTKLEIKRNDAQPAVYLFQPSPDQLHTGSASVVCLLNSFYPKDINVKWKVDGVIQDTGIQESVTEQDKDSTYSLSSTLTMSSTEYLSHELYSCEITHKSLPSTLIKSFQRSEC
notes: VH/VL: the caninized 34D03 entries of the listing; also called ID No. 19; copies: 2 + 2
Consider B4, for which the Kd is 34.2 nM in assay [3] and 554 nM in assay [4].

B5: mAb1, caninized anti-IL31 antibody 34D03, canine IgGB, N434V (antibody)
heavy: EVQLVESGGDLVKPGGSLRLSCVASGFTFSNYGMSWVRQAPGKGLQWVATISYGGSYTYYPDNIKGRFTISRDNAKNTLYLQMNSLRAEDTAMYYCVRGYGYDTMDYWGQGTLVTVSSASTTAPSVFPLAPSCGSTSGSTVALACLVSGYFPEPVTVSWNSGSLTSGVHTFPSVLQSSGLYSLSSMVTVPSSRWPSETFTCNVAHPASKTKVDKPVPKRENGRVPRPPDCPKCPAPEMLGGPSVFIFPPKPKDTLLIARTPEVTCVVVDLDPEDPEVQISWFVDGKQMQTAKTQPREEQFNGTYRVVSVLPIGHQDWLKGKQFTCKVNNKALPSPIERTISKARGQAHQPSVYVLPPSREELSKNTVSLTCLIKDFFPPDIDVEWQSNGQQEPESKYRTTPPQLDEDGSYFLYSKLSVDKSRWQRGDTFICAVMHEALHVHYTQESLSHSPGK
light: EIVMTQSPASLSLSQEEKVTITCKASQSVSFAGTGLMHWYQQKPGQAPKLLIYRASNLEAGVPSRFSGSGSGTDFSFTISSLEPEDVAVYYCQQSREYPWTFGQGTKLEIKRNDAQPAVYLFQPSPDQLHTGSASVVCLLNSFYPKDINVKWKVDGVIQDTGIQESVTEQDKDSTYSLSSTLTMSSTEYLSHELYSCEITHKSLPSTLIKSFQRSEC
notes: VH/VL: the caninized 34D03 entries of the listing; also called ID No. 20; copies: 2 + 2
With B5, the Kd came to 6.16 nM in assay [3] and 2750 nM in assay [4].

B6: mAb1, caninized anti-IL31 antibody 34D03, canine IgGB, N434S (antibody)
heavy: EVQLVESGGDLVKPGGSLRLSCVASGFTFSNYGMSWVRQAPGKGLQWVATISYGGSYTYYPDNIKGRFTISRDNAKNTLYLQMNSLRAEDTAMYYCVRGYGYDTMDYWGQGTLVTVSSASTTAPSVFPLAPSCGSTSGSTVALACLVSGYFPEPVTVSWNSGSLTSGVHTFPSVLQSSGLYSLSSMVTVPSSRWPSETFTCNVAHPASKTKVDKPVPKRENGRVPRPPDCPKCPAPEMLGGPSVFIFPPKPKDTLLIARTPEVTCVVVDLDPEDPEVQISWFVDGKQMQTAKTQPREEQFNGTYRVVSVLPIGHQDWLKGKQFTCKVNNKALPSPIERTISKARGQAHQPSVYVLPPSREELSKNTVSLTCLIKDFFPPDIDVEWQSNGQQEPESKYRTTPPQLDEDGSYFLYSKLSVDKSRWQRGDTFICAVMHEALHSHYTQESLSHSPGK
light: EIVMTQSPASLSLSQEEKVTITCKASQSVSFAGTGLMHWYQQKPGQAPKLLIYRASNLEAGVPSRFSGSGSGTDFSFTISSLEPEDVAVYYCQQSREYPWTFGQGTKLEIKRNDAQPAVYLFQPSPDQLHTGSASVVCLLNSFYPKDINVKWKVDGVIQDTGIQESVTEQDKDSTYSLSSTLTMSSTEYLSHELYSCEITHKSLPSTLIKSFQRSEC
notes: VH/VL: the caninized 34D03 entries of the listing; also called ID No. 18; copies: 2 + 2
Turning to B6, the Kd in assay [3] is 20.2 nM; in assay [4] it was 6960 nM.

B7: mAb1, caninized anti-IL31 antibody 34D03, canine IgGB, N434Q (antibody)
heavy: EVQLVESGGDLVKPGGSLRLSCVASGFTFSNYGMSWVRQAPGKGLQWVATISYGGSYTYYPDNIKGRFTISRDNAKNTLYLQMNSLRAEDTAMYYCVRGYGYDTMDYWGQGTLVTVSSASTTAPSVFPLAPSCGSTSGSTVALACLVSGYFPEPVTVSWNSGSLTSGVHTFPSVLQSSGLYSLSSMVTVPSSRWPSETFTCNVAHPASKTKVDKPVPKRENGRVPRPPDCPKCPAPEMLGGPSVFIFPPKPKDTLLIARTPEVTCVVVDLDPEDPEVQISWFVDGKQMQTAKTQPREEQFNGTYRVVSVLPIGHQDWLKGKQFTCKVNNKALPSPIERTISKARGQAHQPSVYVLPPSREELSKNTVSLTCLIKDFFPPDIDVEWQSNGQQEPESKYRTTPPQLDEDGSYFLYSKLSVDKSRWQRGDTFICAVMHEALHQHYTQESLSHSPGK
light: EIVMTQSPASLSLSQEEKVTITCKASQSVSFAGTGLMHWYQQKPGQAPKLLIYRASNLEAGVPSRFSGSGSGTDFSFTISSLEPEDVAVYYCQQSREYPWTFGQGTKLEIKRNDAQPAVYLFQPSPDQLHTGSASVVCLLNSFYPKDINVKWKVDGVIQDTGIQESVTEQDKDSTYSLSSTLTMSSTEYLSHELYSCEITHKSLPSTLIKSFQRSEC
notes: VH/VL: the caninized 34D03 entries of the listing; also called ID No. 16; copies: 2 + 2
For the molecule B7, the results for the Kd in assay [3] and in assay [4] were 5.91 nM and 21.8 nM, respectively.

B8: mAb2 of Table 4A, caninized anti-NGF antibody ZTS-841, canine IgGB, N434K (antibody)
heavy: EVQLVESGGDLVKPGGSLRLSCVASGFTFSSHGMHWVRQSPGKGLQWVAVINSGGSSTYYTDAVKGRFTISRDNAKNTVYLQMNSLRAEDTAMYYCAKESVGGWEQLVGPHFDYWGQGTLVIVSSASTTAPSVFPLAPSCGSTSGSTVALACLVSGYFPEPVTVSWNSGSLTSGVHTFPSVLQSSGLYSLSSMVTVPSSRWPSETFTCNVAHPASKTKVDKPVPKRENGRVPRPPDCPKCPAPEMLGGPSVFIFPPKPKDTLLIARTPEVTCVVVDLDPEDPEVQISWFVDGKQMQTAKTQPREEQFNGTYRVVSVLPIGHQDWLKGKQFTCKVNNKALPSPIERTISKARGQAHQPSVYVLPPSREELSKNTVSLTCLIKDFFPPDIDVEWQSNGQQEPESKYRTTPPQLDEDGSYFLYSKLSVDKSRWQRGDTFICAVMHEALHKHYTQESLSHSPGK
VL: QSVLTQPTSVSGSLGQRVTISCSGSTNNIGILGASWYQLFPGKAPKLLVYGNGNRPSGVPDRFSGADSGDSVTLTITGLQAEDEADYYCQSFDTTLGAHVFGGGTHLTVL
notes: also called ID No. 51
For B8, the Kd in assay [1] was found to be 1.93 nM; in assay [2] it was 594 nM.
